Measured values as given in PMC7319586.

How the values were obtained:
Rv2827c [1] = target: T1, Rv2827c (Mycobacterium tuberculosis (H37Rv), UniProt P71625 1-295); test: EMSA; details: protein: recombinant; tags: His6-SUMO removed by SENP; untagged; label: 5' 6-FAM on strand 2; blunt
T1 sequence: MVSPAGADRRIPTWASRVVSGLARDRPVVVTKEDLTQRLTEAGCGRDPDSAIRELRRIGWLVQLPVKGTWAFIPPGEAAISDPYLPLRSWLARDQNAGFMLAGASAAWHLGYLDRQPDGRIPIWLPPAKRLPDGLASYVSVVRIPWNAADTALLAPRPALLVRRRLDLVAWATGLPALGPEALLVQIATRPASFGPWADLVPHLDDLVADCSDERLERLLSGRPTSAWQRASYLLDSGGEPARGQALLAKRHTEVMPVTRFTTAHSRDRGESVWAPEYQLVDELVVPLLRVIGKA

Rv2827c [2] = target: T1, Rv2827c; test: EMSA; weakly negative co-operativity; details: protein: recombinant; tags: His6-SUMO removed by SENP; untagged; label: 5' 6-FAM on strand 2; blunt
Rv1044 = target: T2, Rv1044 (Mycobacterium tuberculosis (H37Rv), UniProt P96357 1-207); test: EMSA; details: protein: recombinant; tags: His6-SUMO removed by SENP; untagged; chain copies: 2; label: 5' 6-FAM on strand 2; blunt
T2 sequence: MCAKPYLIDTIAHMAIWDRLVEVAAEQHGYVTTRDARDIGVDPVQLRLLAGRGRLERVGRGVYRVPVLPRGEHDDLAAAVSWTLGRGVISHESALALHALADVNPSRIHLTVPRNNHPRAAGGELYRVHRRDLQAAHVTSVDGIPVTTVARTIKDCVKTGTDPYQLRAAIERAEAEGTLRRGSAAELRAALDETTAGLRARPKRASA

Rv2827c [3] = target: T1, Rv2827c; test: EMSA; two binding events; not co-operative; details: protein: recombinant; tags: His6-SUMO removed by SENP; untagged; label: 5' 6-FAM on strand 2; blunt

B1: PabiEi -1 to -71 WT (IR1-IR2, TRB1061) (dsDNA)
DNA 1: AAAAGAAAATGTTGCTTTTATACCACAAATATTGTAAAATTGTAGTGTAAAAGCAACAAGTGGGGGGCCGTAAGCTTTTGTCAGTGCGCA
DNA 2: TGCGCACTGACAAAAGCTTACGGCCCCCCACTTGTTGCTTTTACACTACAATTTTACAATATTTGTGGTATAAAAGCAACATTTTCTTTT
binding result (Rv2827c [1]): no binding

B2: Prv2827c -61 to -131 WT (IR1-IR2, TRB1106) (dsDNA)
DNA 1: CAGGGCACTTGAGTTTGGAACGGGTTTCGTACTGTCACTGACCGAAGCCCGTTCCTAAATCAAGTGATTTCAAGCTTTTGTCAGTGCGCA
DNA 2: TGCGCACTGACAAAAGCTTGAAATCACTTGATTTAGGAACGGGCTTCGGTCAGTGACAGTACGAAACCCGTTCCAAACTCAAGTGCCCTG
binding result (Rv2827c [2]): binds
binding result (Rv1044): no binding

B3: Prv1044 -1 to -71 WT (TRB1086) (dsDNA)
DNA 1: AACTAGGCGCGCCTAGCCTGGACGAGTCCCCGGGCCGACATTCGCCCGAGGCCTTGGCCTCCATCACCTAAAAGCTTTTGTCAGTGCGCA
DNA 2: TGCGCACTGACAAAAGCTTTTAGGTGATGGAGGCCAAGGCCTCGGGCGAATGTCGGCCCGGGGACTCGTCCAGGCTAGGCGCGCCTAGTT
binding result (Rv1044): no binding

B4: Prv2827c -1 to -71 WT (IR3-IR4, TRB1104) (dsDNA)
DNA 1: CAAGTGATTTCTTGAGTTTGAACATTGTTGCGTACAGATATAGTATAGTTTCCGGTGTGAATTCAAGTTCGAAGCTTTTGTCAGTGCGCA
DNA 2: TGCGCACTGACAAAAGCTTCGAACTTGAATTCACACCGGAAACTATACTATATCTGTACGCAACAATGTTCAAACTCAAGAAATCACTTG
binding result (Rv2827c [3]): binds
binding result (Rv1044): no binding

B5: Prv1044 -61 to -131 WT (TRB1102) (dsDNA)
DNA 1: GTATCTGCGACAAGGGCAGCGTCGATGCCTCGACATGCAGAGTCGGTGTTCGCTTCACGCGAACTAGGCGCAAGCTTTTGTCAGTGCGCA
DNA 2: TGCGCACTGACAAAAGCTTGCGCCTAGTTCGCGTGAAGCGAACACCGACTCTGCATGTCGAGGCATCGACGCTGCCCTTGTCGCAGATAC
binding result (Rv1044): no binding
